Reference: patent US20110045008A1

Molecular target: platelet GPIIIa (integrin beta3) on platelets (human) (UniProt P05106)
Test: cell-based or functional assay

platelet GPIIIa (integrin beta3) on platelets (human), sequence (P05106 27-788): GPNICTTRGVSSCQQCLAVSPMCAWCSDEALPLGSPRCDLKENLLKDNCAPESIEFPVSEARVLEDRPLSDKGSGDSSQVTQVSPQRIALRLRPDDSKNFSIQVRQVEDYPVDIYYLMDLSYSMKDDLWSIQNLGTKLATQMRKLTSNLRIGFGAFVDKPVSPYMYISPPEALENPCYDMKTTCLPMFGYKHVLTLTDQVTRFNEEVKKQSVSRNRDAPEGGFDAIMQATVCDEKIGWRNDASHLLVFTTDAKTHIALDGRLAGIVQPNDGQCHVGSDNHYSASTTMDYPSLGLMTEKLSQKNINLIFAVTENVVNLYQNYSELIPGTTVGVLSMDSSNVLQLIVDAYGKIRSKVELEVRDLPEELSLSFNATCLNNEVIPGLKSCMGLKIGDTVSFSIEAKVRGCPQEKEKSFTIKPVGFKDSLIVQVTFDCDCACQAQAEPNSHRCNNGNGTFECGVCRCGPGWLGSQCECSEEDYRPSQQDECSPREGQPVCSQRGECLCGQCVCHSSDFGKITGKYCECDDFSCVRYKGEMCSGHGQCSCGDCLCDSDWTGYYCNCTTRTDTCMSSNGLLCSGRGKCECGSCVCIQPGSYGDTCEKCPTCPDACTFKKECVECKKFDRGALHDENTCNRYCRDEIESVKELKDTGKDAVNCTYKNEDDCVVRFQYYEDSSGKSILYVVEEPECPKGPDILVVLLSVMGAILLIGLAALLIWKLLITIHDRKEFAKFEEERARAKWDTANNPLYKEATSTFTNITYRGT

Question: “ADAMTS-18 66 amino acid fragment (1156-1221) (from UniProt Q8TE60 1156-1221) (ligand)” was tested. Which platelet fragmentation did it give?
Answer: 85 µM
